Results reported in patent US20070099283.

Target: T1, propeptide (prosequence) of proteinase K from Tritirachium album Limber
T1 chain: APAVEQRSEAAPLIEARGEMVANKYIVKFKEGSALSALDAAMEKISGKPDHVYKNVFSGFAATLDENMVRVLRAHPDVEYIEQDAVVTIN

B1: mature recombinant proteinase K from Tritirachium album Limber (processed, natured from pro-proteinase K) (protein)
chain: AAQTNAPWGLARISSTSPGTSTYYYDESAGQGSCVYVIDTGIEASHPEFEGRAQMVKTYYYSSRDGNGHGTHCAGTVGSRTYGVAKKTQLFGVKVLDDNGSGQYSTIIAGMDFVASDKNNRNCPKGVVASLSLGGGYSSSVNSAAARLQSSGVMVAVAAGNNNADARNYSPASEPSVCTVGASDRYDRRSSFSNYGSVLDIFGPGTSILSTWIGGSTRSISGTSMATPHVAGLAAYLMTLGKTTAASACRYIADTANKGDLSNIPFGTVNLLAYNNYQA
  proteinase K activity (chromogenic substrate test) of gel filtration fractions: no activity is found without prior activation
